We go through 2 substances from patent US20090191228A1.

Assay [1] deals with dH5-0 (recombinant hemagglutinin 5 of H5N1 strain A/Vietnam/1203/04, stock as supplied by Protein Sciences) (influenza virus H5N1 strain A/Vietnam/1203/04). Put plainly: ELISA, immobilized H5 forms, Fn F4-5 in solution; normalized to cdH5-0.
Assay [2] shares this target.

For “fourth and fifth finger domain of fibronectin (Fn F4-5) (from UniProt P02751 183-275)”, the Normalized affinity, kD (%) in assay [1] is 103%.
Take “tissue type plasminogen activator (tPA) (from UniProt P00750 36-562) (enzyme)”: in assay [2], the Bmax came to 0.32 and the Kd came to 96 nM.

For orientation: Kd means the free concentration of one partner at which half of the binding sites on the other are occupied at equilibrium, for simple one-to-one binding.
